Data from US11124550B2, “Proteinaceous molecules and methods of use” (priority 2015, dated 2021).
pEC50: −log10 of the molar value. Positions of bridges follow the written chain, without caps; N, C: chain ends. Residues, ends and D or L forms follow the SMILES beside them.

Legend:
[1] = after 72 hours, 37° C., 1 μM
[2] = test system: TG or DRG neurons; experiment: Calcium imaging of cultured somatosensory neurons (Fura-2); format: cell-based, rat
[3] = target: T1, hNav1.1 (Homo sapiens, UniProt P35498); experiment: Automated whole-cell patch clamp (QPatch 16X), sustained currents in HEK293 cells; format: cell-based; conditions: for fast inactivation and sustained current at end of depolarising pulse, hNav1.1: 300 nM; for pEC50: HEK293 cells stably expressing hNav1.1, n=3, read-out: EC50 for evoking sustained currents at hNav1.1
T1 construct: expressed in transfected cells; host or cells: HEK293T
Experimental: The activity of recombinant Hm1b was assessed at hNav1.1-1.7. Sodium currents were measured from hNav channels stably expressed in HEK293 cells using an automated whole-cell patch-clamp electrophysiology system (QPatch 16X; Sophion, Ballerup, Denmark). The extracellular solution comprised 2 mM CaCl2), 1 mM MgCl2, 10 mM HEPES, 4 mM KCl, 145 mM NaCl, 10 mM D-glucose at pH 7.3, and 305 mOsm. The intracellular solution comprised 140 mM CsF, 1 mM/5 mM EGTA/CsOH, 10 mM HEPES, 10 mM NaCl at pH 7.3, osmolality 320 mOsm. The elicited currents were sampled at 25 kHz and filtered at 5 kHz. Cells were maintained at a holding potential of −80 mV and sodium currents were elicited by 210 ms voltage steps at 0 mV after a 50 ms conditioning step from −120 mV. For dose-response experiments, cells were incubated for 5 min with increasing concentrations of Hm1b. Peptide stock solutions were made up to 10 μM and serial dilutions were prepared in extracellular solution containing 0.1% BSA. Graphs and fittings were performed using Prism 7.0 (GraphPad Software, San Diego, Calif.). Numerical data are presented as mean SEM based on at least three experiments (n≥3).
The point mutation (Lys to Ser at position 11) was introduced into the pLIC-MBP-Hm1b expression plasmid (produced according to the methods of Example 7) by polymerase chain reaction (PCR) using mutagenic primers and standard protocols with Platinum Pfx DNA Polymerase (Invitrogen). Mutagenic primers were designed using the online tool PrimerX and synthesised by Integrated DNA Technologies, Inc. (Emu Heights, NSW). DNA from the mutant construct was isolated and sequenced to verify the desired mutation (AGRF, Brisbane, Australia). Plasmid DNA was isolated using ISOLATE II plasmid Mini Kit (Bioline, London, UK) for transformation into E. coli BL21 cells for recombinant peptide production. […].

[4] = in vitro; conditions: human, cerebrospinal or other body fluid
[5] = target: T1, hNav1.1; experiment: Automated planar whole-cell patch clamp (Patchliner), hSCN1A HEK293T cells; format: cell-based
Description: (§1) To characterize the functional activity of Hm1a and Hm1b, HEK293T cells stably transfected with either hSCN1A, hSCN2A, hSCN3A, hSCN5A, hSCN9A or hSCN10A as well as CHO cells stably transfected with hSCN4A or hSCN8A were used for whole-cell patch-clamp analysis with a high throughput automated planar patch-clamp technology.
(§2) HEK293T cells stably transfected with either hSCN1A, hSCN2A, hSCN3A, hSCN5A, hSCN9A or hSCN10A were maintained in Dulbecco's Modified Eagle's Medium Nutrient Mixture F-12 (Invitrogen, Carlsbad, Calif., USA) supplemented with 10% (v/v) foetal bovine serum (FBS) (Invitrogen), 0.9% Penicillin/Streptomycin (P/S) solution and 100 μg/mL hygromycin or 100 μg/mL neomycin. CHO cells stably transfected with hSCN4A or hSCN8A were maintained in Ham's F12 Nutrient Mixture (Invitrogen, Carlsbad, Calif., USA) supplemented with 10% (v/v) FBS, 0.9% P/S solution and 100 μg/mL hygromycin. All cells were grown in T75 flasks (BD Biosciences, San Jose, Calif., USA) to ˜70% confluency.
Patch-clamp recordings were conducted in the whole-cell configuration using a Patchliner® (Nanion Technologies, Munich, Germany). Before recordings, cells were detached from culture flasks with Accutase Cell Detachment Solution (Innovative Cell Technologies Inc., San Diego, Calif., USA) and resuspended at a density of 1×10^6 to 5×10^7 per milliliter in 50% serum free media and 50% external recording solution v/v. The external recording solution comprised: 140 mM NaCl, 4 mM KCl, 1 mM MgCl2, 2 mM CaCl2), 5 mM D-glucose, 10 mM HEPES (pH adjusted to 7.4 with NaOH). The osmolarity of this solution was 298 mOsm. The internal recording solution comprised: 50 mM CsCl, 10 mM NaCl, 60 mM CsF, 2 mM MgCl2, 20 mM EGTA, 10 mM HEPES (pH adjusted to 7.2 with CsOH) and the osmolarity of this solution was 285 mOsm. […]
(§3) The voltage dependence of activation was studied by measuring the normalised peak currents during 100 ms depolarisations from −120 mV to +30 mV in 5 mV increments. The resulting current-voltage curve was fit to the equation I=[I+exp(−0.03937.z.(V−V1/2)]/g.(V−Vr), where I is current amplitude; z is apparent gating charge; V is test potential; V1/2 is half maximal voltage; g is a factor related to the maximum number of open channels; and Vr is reversal potential. Conductance was determined using G=I/(V−Vr), where G is conductance. The conductance values were then fit with the Boltzmann equation G=1/(1+exp[(V−V1/2)/a]), where a is the slope of the half-maximum, V is the potential of the given pulse and V1/2 is the potential for the half-maximal activation. To study steady-state fast inactivation, cells were held at conditioning pre-pulse potentials ranging from −120 mV to +30 mV in 5 mV increments from a holding potential of −120 mV and a test pulse at 0 mV for 20 ms. […]

[6] = target: T2, hNav1.2 (Homo sapiens, UniProt Q99250); experiment: Automated planar whole-cell patch clamp (Patchliner), hSCN2A HEK293T cells; format: cell-based
T2 construct: expressed in transfected cells; host or cells: HEK293T
T2 sequence (Q99250 whole entry): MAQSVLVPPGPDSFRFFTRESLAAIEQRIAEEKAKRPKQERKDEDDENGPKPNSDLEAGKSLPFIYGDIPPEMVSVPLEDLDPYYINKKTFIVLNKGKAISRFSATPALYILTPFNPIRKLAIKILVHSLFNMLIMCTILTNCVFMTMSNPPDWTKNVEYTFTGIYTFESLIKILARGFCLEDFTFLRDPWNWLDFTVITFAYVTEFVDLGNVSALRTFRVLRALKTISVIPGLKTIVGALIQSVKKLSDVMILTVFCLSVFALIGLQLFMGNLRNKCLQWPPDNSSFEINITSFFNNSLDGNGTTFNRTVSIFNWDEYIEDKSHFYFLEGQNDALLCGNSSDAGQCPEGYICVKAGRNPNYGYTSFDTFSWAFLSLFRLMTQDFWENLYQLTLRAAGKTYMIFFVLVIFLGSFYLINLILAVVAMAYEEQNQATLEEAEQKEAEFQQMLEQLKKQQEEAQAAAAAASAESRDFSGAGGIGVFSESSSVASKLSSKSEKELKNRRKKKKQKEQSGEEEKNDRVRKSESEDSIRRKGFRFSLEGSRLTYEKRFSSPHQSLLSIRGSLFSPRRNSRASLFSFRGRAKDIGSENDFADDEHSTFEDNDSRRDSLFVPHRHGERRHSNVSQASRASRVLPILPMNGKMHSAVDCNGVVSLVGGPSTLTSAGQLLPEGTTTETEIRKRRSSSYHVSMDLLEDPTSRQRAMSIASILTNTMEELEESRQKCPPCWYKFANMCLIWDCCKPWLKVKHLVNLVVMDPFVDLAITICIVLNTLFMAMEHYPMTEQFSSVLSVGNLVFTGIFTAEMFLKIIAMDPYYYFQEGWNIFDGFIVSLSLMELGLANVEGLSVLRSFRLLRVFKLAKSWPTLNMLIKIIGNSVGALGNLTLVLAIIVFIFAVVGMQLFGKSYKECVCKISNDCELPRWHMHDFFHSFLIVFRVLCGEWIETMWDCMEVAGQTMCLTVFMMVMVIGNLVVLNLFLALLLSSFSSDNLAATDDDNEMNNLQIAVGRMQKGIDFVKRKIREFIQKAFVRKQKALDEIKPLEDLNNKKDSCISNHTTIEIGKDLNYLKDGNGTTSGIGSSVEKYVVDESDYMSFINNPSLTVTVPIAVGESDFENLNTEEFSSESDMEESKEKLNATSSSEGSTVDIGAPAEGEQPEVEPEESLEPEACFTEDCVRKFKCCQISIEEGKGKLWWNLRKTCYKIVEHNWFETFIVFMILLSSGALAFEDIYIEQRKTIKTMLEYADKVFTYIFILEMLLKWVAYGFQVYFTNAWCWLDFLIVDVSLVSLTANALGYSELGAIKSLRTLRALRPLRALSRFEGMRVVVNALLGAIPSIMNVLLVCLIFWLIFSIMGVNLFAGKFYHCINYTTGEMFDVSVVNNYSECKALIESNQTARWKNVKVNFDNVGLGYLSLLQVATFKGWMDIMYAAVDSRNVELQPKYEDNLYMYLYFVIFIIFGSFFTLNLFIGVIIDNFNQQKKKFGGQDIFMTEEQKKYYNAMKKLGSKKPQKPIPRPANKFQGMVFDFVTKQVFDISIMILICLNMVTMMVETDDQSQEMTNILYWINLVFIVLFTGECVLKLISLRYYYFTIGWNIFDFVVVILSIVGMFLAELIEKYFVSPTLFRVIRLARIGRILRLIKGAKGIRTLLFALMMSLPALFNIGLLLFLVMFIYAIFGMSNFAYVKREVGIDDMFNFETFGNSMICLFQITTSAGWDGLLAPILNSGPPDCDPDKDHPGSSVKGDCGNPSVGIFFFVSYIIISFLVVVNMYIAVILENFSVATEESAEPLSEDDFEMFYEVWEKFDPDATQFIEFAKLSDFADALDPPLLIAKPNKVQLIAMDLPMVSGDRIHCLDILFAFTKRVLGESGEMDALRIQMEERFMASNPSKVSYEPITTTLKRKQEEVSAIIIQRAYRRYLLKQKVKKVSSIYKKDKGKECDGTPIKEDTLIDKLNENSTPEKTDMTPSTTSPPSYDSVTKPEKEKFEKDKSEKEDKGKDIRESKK
Description: as §1, §2
(§4) Patch-clamp recordings were conducted in the whole-cell configuration using a Patchliner® (Nanion Technologies, Munich, Germany). […]
as §3

[7] = target: T3, hNav1.3 (Homo sapiens, UniProt Q9NY46); experiment: Automated planar whole-cell patch clamp (Patchliner), hSCN3A HEK293T cells; format: cell-based
T3 construct: expressed in transfected cells; host or cells: HEK293T
Description: as §1, §2, §4, §3

[8] = target: T4, hNav1.6 (Homo sapiens, UniProt Q9UQD0); experiment: Automated planar whole-cell patch clamp (Patchliner), hSCN8A CHO cells; format: cell-based
T4 construct: expressed in transfected cells; host or cells: CHO
T4 sequence (Q9UQD0 whole entry): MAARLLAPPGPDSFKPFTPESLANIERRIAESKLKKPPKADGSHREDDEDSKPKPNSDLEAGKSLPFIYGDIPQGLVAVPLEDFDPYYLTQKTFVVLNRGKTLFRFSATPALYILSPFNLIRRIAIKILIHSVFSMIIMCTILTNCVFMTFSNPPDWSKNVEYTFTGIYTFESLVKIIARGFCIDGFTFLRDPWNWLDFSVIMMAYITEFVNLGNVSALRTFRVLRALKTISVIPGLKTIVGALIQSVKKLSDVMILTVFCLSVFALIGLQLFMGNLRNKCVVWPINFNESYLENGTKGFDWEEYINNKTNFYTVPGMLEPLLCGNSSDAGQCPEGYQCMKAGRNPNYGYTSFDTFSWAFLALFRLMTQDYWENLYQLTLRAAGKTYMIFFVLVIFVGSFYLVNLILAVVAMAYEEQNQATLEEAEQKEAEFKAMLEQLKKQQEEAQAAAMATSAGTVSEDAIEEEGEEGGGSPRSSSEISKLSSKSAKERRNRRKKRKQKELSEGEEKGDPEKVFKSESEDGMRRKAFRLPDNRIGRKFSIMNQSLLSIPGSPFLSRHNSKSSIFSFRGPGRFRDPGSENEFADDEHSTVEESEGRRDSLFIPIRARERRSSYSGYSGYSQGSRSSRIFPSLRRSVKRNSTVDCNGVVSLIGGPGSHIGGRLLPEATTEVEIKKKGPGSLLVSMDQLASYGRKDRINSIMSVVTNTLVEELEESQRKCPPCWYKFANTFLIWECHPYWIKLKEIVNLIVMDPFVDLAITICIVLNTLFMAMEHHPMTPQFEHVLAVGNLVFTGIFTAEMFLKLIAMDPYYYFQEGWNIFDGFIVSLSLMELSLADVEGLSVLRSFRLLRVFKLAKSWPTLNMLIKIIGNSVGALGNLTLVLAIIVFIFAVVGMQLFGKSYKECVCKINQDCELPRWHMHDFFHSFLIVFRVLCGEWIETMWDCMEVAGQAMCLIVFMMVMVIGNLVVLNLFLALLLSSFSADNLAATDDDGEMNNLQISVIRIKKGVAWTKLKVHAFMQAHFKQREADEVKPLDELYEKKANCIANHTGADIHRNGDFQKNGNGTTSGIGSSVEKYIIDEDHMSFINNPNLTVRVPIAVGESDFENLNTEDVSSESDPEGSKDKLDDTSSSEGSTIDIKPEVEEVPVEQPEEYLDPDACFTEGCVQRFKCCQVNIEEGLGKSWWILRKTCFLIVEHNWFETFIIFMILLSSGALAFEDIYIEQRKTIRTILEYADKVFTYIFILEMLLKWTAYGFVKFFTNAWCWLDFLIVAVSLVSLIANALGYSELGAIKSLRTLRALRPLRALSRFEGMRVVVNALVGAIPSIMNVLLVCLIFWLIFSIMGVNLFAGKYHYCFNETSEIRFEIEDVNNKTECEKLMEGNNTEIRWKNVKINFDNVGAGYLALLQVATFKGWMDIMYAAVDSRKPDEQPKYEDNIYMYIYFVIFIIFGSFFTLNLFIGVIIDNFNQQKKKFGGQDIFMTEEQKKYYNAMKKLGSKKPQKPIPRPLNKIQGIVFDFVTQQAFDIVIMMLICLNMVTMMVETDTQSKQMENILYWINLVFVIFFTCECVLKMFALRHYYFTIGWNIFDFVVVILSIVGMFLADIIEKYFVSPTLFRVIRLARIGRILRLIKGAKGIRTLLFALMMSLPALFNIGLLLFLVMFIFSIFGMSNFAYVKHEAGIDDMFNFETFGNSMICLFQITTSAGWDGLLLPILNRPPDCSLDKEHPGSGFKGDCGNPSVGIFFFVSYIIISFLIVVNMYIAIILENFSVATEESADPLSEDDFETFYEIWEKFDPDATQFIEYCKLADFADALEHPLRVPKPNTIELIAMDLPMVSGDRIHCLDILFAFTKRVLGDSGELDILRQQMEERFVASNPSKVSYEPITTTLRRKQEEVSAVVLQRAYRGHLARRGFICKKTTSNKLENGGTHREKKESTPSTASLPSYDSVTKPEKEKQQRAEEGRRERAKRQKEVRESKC
Description: as §1, §2, §4, §3

[9] = 5 nM and 50 nM, potentials more positive than −15 mV

With CC[C@H](C)[C@@H]1NC(=O)[C@H](CCCNC(=N)N)NC(=O)[C@H](CC(=O)O)NC(=O)[C@H](CCSC)NC(=O)[C@H](CCCNC(=N)N)NC(=O)CNC(=O)CNC(=O)[C@H](Cc2ccccc2)NC(=O)[C@@H](NC(=O)[C@H](CO)NC(=O)[C@H](CO)NC(=O)[C@H](CCCNC(=N)N)NC(=O)[C@H](CCCNC(=N)N)NC(=O)[C@H](CC(C)C)NC(=O)[C@@H](N)CO)CSSC[C@@H](C(=O)N[C@@H](CC(N)=O)C(=O)N[C@@H](CO)C(=O)N[C@@H](Cc2ccccc2)C(=O)N[C@@H](CCCNC(=N)N)C(=O)N[C@@H](Cc2ccc(O)cc2)C(=O)O)NC(=O)CNC(=O)[C@H](CC(C)C)NC(=O)CNC(=O)[C@H](CO)NC(=O)[C@H](CCC(N)=O)NC(=O)[C@H](C)NC(=O)CNC1=O [hANP] the “peptide remaining in human CSF” value [1] was “no detectable”.
For O=C(Nc1ccc(S(=O)(=O)Nc2nccs2)cc1)C(c1ccccc1)c1ccccc1 [ICA-121431], the “calcium responses induced by Hm1a” value ([2]; ICA-121431 500 nM) was “greatly diminish” and the “responses to SGTx1” value ([2]; in presence of ICA-121431) was “did not attenuate”.
For CC(C)C[C@@H]1NC(=O)[C@H](Cc2c[nH]cn2)NC(=O)[C@H](CCCCN)NC(=O)[C@@H]2CSSC[C@H](NC(=O)[C@H](CCC(=O)O)NC(=O)[C@@H](N)CO)C(=O)N[C@@H](CCCNC(=N)N)C(=O)N[C@@H](Cc3ccc(O)cc3)C(=O)N[C@@H](CC(C)C)C(=O)N[C@@H](Cc3ccccc3)C(=O)NCC(=O)NCC(=O)N[C@H]3CSSC[C@H](NC(=O)CNC1=O)C(=O)N[C@@H](CCCNC(=N)N)C(=O)N[C@@H]([C@@H](C)O)C(=O)N[C@@H](CC(=O)O)C(=O)N[C@@H](CC(C)C)C(=O)N[C@@H](Cc1ccc(O)cc1)C(=O)N[C@@H](Cc1ccc(O)cc1)C(=O)N[C@H](C(=O)N[C@@H](C)C(=O)N[C@@H](Cc1c[nH]c4ccccc14)C(=O)N[C@@H](CC(=O)O)C(=O)NCC(=O)N[C@H](C(=O)N[C@@H](Cc1ccccc1)C(=O)O)[C@@H](C)O)CSSC[C@H](NC(=O)[C@H](CC(=O)O)NC(=O)[C@H](C)NC(=O)[C@H]([C@@H](C)O)NC(=O)[C@H]([C@@H](C)O)NC(=O)[C@H](CCCCN)NC3=O)C(=O)N2 [recombinant Hm1b], the “fast inactivation and sustained current at end of depolarising pulse, hNav1.1” value [3] was “delayed fast inactivation and induced a sustained current”, the pEC50 [3] was 7.73 and the “selectivity for hNav1.1 over hNav1.2, hNav1.4, hNav1.5, hNav1.6 and hNav1.7” value ([3]; sustained currents at 300 nM) was “very high level of selectivity”.
CSCC[C@@H]1NC(=O)[C@H](CC(C)C)NC(=O)[C@H](CCCNC(=N)N)NC(=O)[C@H](CO)NC(=O)[C@@H]2CSSC[C@@H]3NC(=O)[C@H](CO)NC(=O)CNC(=O)[C@H]([C@@H](C)O)NC(=O)[C@H](CSSC[C@H](N)C(=O)N[C@@H](CCCCN)C(=O)NCC(=O)N[C@@H](CCCCN)C(=O)NCC(=O)N[C@@H](C)C(=O)N[C@@H](CCCCN)C(=O)N2)NC(=O)[C@H](CSSC[C@@H](C(N)=O)NC(=O)[C@H](CCCCN)NC(=O)CNC(=O)[C@H](CO)NC(=O)[C@H](CCCNC(=N)N)NC3=O)NC(=O)[C@H](CC(=O)O)NC(=O)[C@H](Cc2ccc(O)cc2)NC1=O [ω-conotoxin MVIIA] gave a remaining at 72 h [4] of roughly 10%.
For NC1=N[C@H](O)[C@H]2[C@H]3O[C@]4(O)O[C@@H]([C@@H](O)[C@@]2(N1)[C@@H]4O)[C@]3(O)CO [TTX, Tetrodotoxin], the Hm1a-evoked calcium responses [2] was “blocked”.
For CC(C)C[C@@H]1NC(=O)[C@H](Cc2c[nH]cn2)NC(=O)[C@H](CCCCN)NC(=O)[C@@H]2CSSC[C@H](NC(=O)[C@H](CCC(=O)O)NC(=O)[C@@H](N)CO)C(=O)N[C@@H](CCCNC(=N)N)C(=O)N[C@@H](Cc3ccc(O)cc3)C(=O)N[C@@H](CC(C)C)C(=O)N[C@@H](Cc3ccccc3)C(=O)NCC(=O)NCC(=O)N[C@H]3CSSC[C@H](NC(=O)CNC1=O)C(=O)N[C@@H](CCCNC(=N)N)C(=O)N[C@@H]([C@@H](C)O)C(=O)N[C@@H](CC(=O)O)C(=O)N[C@@H](CC(C)C)C(=O)N[C@@H](Cc1ccc(O)cc1)C(=O)N[C@@H](Cc1ccc(O)cc1)C(=O)N[C@H](C(=O)N[C@@H](C)C(=O)N[C@@H](Cc1c[nH]c4ccccc14)C(=O)N[C@@H](CC(=O)O)C(=O)NCC(=O)N[C@H](C(=O)N[C@@H](Cc1ccccc1)C(=O)O)[C@@H](C)O)CSSC[C@H](NC(=O)[C@H](CC(=O)O)NC(=O)[C@H](C)NC(=O)[C@H]([C@@H](C)O)NC(=O)[C@H]([C@@H](C)O)NC(=O)[C@H](CO)NC3=O)C(=O)N2 [recombinant Hm1b[K11S]] (H-SECRYLFGGCSTTADCCKHLGCRTDLYYCAWDGTF-OH; disulfide 3-17, 10-22, 16-29), the “fast inactivation and sustained current at end of depolarising pulse, hNav1.1” value [3] was “delayed fast inactivation” and the pEC50 [3] was 7.40.
With “ECRYLFGGCKTTADCCKHLGCRTDLYYCAWDGTF-NH2 [Hm1b]” the “voltage-dependence of fast inactivation of hNav1.1” value [5] was “does not appear to alter”, the “voltage-dependence of steady-state activation of hNav1.1” value [5] was “slight hyperpolarizing shift” and the “time constants of fast inactivation of hNav1.1” value [5, 9] was “increases”. The hNav1.1 channel inactivation ([5]; 1, 5 or 50 nM) was “potently inhibits”, the “voltage-dependence of fast inactivation of hNav1.2” value [6] was “does not appear to alter” and the hNav1.2 channel inactivation ([6]; 1 nM, 5 nM or 50 nM) was “did not have a significant effect”. The “time constants of fast inactivation of hNav1.2” value ([6]; 50 nM, potentials more positive than −10 mV) was “increases”, the “voltage-dependence of fast inactivation of hNav1.3” value [7] was “does not appear to alter” and the hNav1.3 channel inactivation ([7]; 5 nM and 50 nM) was “slight inhibitory effect”. For the same compound, the “time constants of fast inactivation of hNav1.3” value [7, 9] was “increased”, the “time constants of fast inactivation of hNav1.6” value [8] was “did not have an effect” and the “voltage-dependence of fast inactivation of hNav1.6” value [8] was “does not appear to alter”. For the same compound, the hNav1.6 channel inactivation ([8]; 5 nM and 50 nM, slight inhibitory effect, compared with hNav1.3) was “to a lesser extent”.
